Changes are numbered by the printed parent chain.

The text below walks through data of publication PMC8809517, “Cofactor-independent RNA editing by a synthetic S-type PPR protein”.

Holding throughout (assay): high-throughput RNA pulldown from lysate on Ni-NTA beads; HRP: 50 mM Tris pH 8, 150 mM NaCl, 1 mM beta-mercaptoethanol, 50 ug/ml BSA, 3 ug/ml yeast RNA, 0.5% heparin; ITC and FP: Tris pH 8, 200 mM KCl, 5% glycerol; MST: 50 mM Tris pH 8, 200 mM NaCl, 1 mM DTT, BSA, heparin, 0.05% Tween 20
Details in all cases: tags: N-terminal His-eGFP

Data set [1] concerns the target T1, GFP-9S library array, motif 4 ND N98V;D124L (synthetic construct, N98V;D124L).
T1 chain: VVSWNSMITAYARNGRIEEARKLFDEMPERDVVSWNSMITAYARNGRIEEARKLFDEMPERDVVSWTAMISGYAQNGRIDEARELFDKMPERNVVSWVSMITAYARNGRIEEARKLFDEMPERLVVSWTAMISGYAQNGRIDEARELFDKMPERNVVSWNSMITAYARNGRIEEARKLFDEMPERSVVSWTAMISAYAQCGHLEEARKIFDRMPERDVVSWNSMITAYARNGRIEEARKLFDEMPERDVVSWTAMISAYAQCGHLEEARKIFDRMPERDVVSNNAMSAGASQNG

Data set [2] deals with T2, GFP-9S library array, motif 4 ND N98G;D124S (synthetic construct, N98G;D124S).
T2 chain: T1 chain with V98G, L124S

Data set [3] has as its target T3, GFP-9S library array, motif 4 ND N98G;D124W (synthetic construct, N98G;D124W).
T3 chain: T1 chain with V98G, L124W

In data set [4] the target is T4, GFP-9S library array, motif 4 ND N98G;D124T (synthetic construct, N98G;D124T).
T4 chain: T1 chain with V98G, L124T

For data set [5], the target named is T5, GFP-9S library array, motif 4 ND N98F;D124W (synthetic construct, N98F;D124W).
T5 chain: T1 chain with V98F, L124W

Regarding AUUACACGUGA (ssRNA) [Cy5-rpoA], the Kd (commonly a measure of binding affinity in units of concentration) was 88.5 nM in data set [1] (label: 5' Cy5); 629 nM in data set [2] (label: 5' Cy5); 49.7 nM in data set [3] (label: 5' Cy5); 169 nM in data set [4] (label: 5' Cy5); 99.3 nM in data set [5] (label: 5' Cy5).
On the same counts, the results for AUUAGACGUGA (ssRNA) [Cy5-rpoA-G] are 112 nM, 549 nM, 69.1 nM, 436 nM and 72.2 nM.
For AUUAAACGUGA (ssRNA) [IR-rpoA-A], the Kd in data set [1] (label: 5' IRDye 800CW) came to 199 nM; in data set [2] (label: 5' IRDye 800CW) it was 564 nM; in data set [3] (label: 5' IRDye 800CW), 74.5 nM; in data set [4] (label: 5' IRDye 800CW) it was 108 nM; in data set [5] (label: 5' IRDye 800CW), 236 nM.
In the same order, the values of AUUAUACGUGA (ssRNA) [IR-rpoA-U] are 126 nM, 749 nM, 67 nM, 236 nM and 364 nM.
